Our source for the Kd values is article PMC7391827 (Science (New York, N.Y.), 2020).

Test [1] concerns the target prefusion RSVF (preRSVF), prefusion-stabilized respiratory syncytial virus fusion protein (respiratory syncytial virus) (UniProt P03420).
Test [2] has as its target T1, S0_2.126 (synthetic construct (de novo design)).
T1 chain: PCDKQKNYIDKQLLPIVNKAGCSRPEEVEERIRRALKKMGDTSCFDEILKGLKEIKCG
Briefly: SPR. (In general: SPR reads the build-up and loss of mass on a sensor chip optically.)

Sequence of prefusion RSVF (preRSVF), prefusion-stabilized respiratory syncytial virus fusion protein (respiratory syncytial virus) (P03420 135-513): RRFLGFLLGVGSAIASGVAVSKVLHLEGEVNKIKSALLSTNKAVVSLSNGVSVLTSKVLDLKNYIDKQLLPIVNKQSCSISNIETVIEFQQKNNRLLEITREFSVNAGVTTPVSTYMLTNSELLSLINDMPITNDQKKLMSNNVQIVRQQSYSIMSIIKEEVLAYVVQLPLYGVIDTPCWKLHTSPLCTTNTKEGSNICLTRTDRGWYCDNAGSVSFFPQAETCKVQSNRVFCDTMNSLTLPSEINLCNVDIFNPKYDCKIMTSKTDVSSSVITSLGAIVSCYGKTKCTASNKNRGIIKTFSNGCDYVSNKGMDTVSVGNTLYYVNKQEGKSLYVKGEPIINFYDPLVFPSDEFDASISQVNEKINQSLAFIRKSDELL

What is called Kd is the equilibrium constant for the complex coming apart. As for D25 antibody, the Kd in test [1] was found to be 0.15 nM.

B1: D25 antibody (antibody, V domains shown)
VH: QVQLVQSGAEVKKPGSSVMVSCQASGGPLRNYIINWLRQAPGQGPEWMGGIIPVLGTVHYAPKFQGRVTITADESTDTAYIHLISLRSEDTAMYYCATETALVVSTTYLPHYFDNWGQGTLVTVSS
VL: DIQMTQSPSSLSAAVGDRVTITCQASQDIVNYLNWYQQKPGKAPKLLIYVASNLETGVPSRFSGSGSGTDFSLTISSLQPEDVATYYCQQYDNLPLTFGGGTKVEIK
For B1, in test [2], the Kd is about 0.05 nM.
